Data set [1] has as its system HeLa Kyoto. The experiment in a line: solubility in G1/S (NP-40 vs SDS abundance) (log2 ratio); higher = more soluble. To be noted: cell cycle stage: G1/S.
Data set [2] relates to HeLa Kyoto. Nature of the data set: melting temperature (median over replicates), in situ; higher = more thermally stable.
Data set [3] deals with HeLa Kyoto. Nature of the data set: solubility change mitosis vs G1/S (difference of NP-40 vs SDS log2 ratios) (log2 ratio difference); higher = more soluble in mitosis.
Data set [4] relates to HeLa Kyoto. The experiment in a line: thermal stability score vs G1/S (z-score of summed log2 fold changes over temperatures); higher = more thermally stable than in G1/S.
The mark [5] stands for this setting: cell cycle stage: early G1 (4.5 h after nocodazole release).
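For melting temperature (median over replicates), in situ in this document: HeLa Kyoto cells synchronized by double thymidine or nocodazole block, proteins quantified by TMT10plex mass spectrometry, three independent biological replicates.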
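For solubility change mitosis vs G1/S (difference of NP-40 vs SDS log2 ratios) in this document: synchronized HeLa Kyoto cells (double thymidine block for G1/S, nocodazole release for mitosis), protein amounts in NP-40 versus SDS lysates quantified by mass spectrometry, three biological replicates.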
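For solubility in G1/S (NP-40 vs SDS abundance) in this document: HeLa Kyoto cells arrested at G1/S by double thymidine block, proteins quantified by TMT10plex mass spectrometry in mild NP-40 versus SDS extracts, three biological replicates.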
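For thermal stability score vs G1/S (z-score of summed log2 fold changes over temperatures) in this document: synchronized HeLa Kyoto cells, proteins quantified by TMT10plex mass spectrometry, three biological replicates, mitosis taken 0.5 h after nocodazole release, G1/S directly after double thymidine block.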

Turning to “MRLALLWALGLLGAGSPLPSWPLPNIGGTEEQQAESEKAPREPLEPQVLQDDLPISLKKVLQTSLPEPLRIKLELDGDSHILELLQNRELVPGRPTLVWYQPDGTRVVSEGHTLENCCYQGRVRGYAGSWVSICTCSGLRGLVVLTPERSYTLEQGPGDLQGPPIISRIQDLHLPGHTCALSWRESVHTQKPPEHPLGQRHIRRRRDVVTETKTVELVIVADHSEAQKYRDFQHLLNRTLEVALLLDTFFRPLNVRVALVGLEAWTQRDLVEISPNPAVTLENFLHWRRAHLLPRLPHDSAQLVTGTSFSGPTVGMAIQNSICSPDFSGGVNMDHSTSILGVASSIAHELGHSLGLDHDLPGNSCPCPGPAPAKTCIMEASTDFLPGLNFSNCSRRALEKALLDGMGSCLFERLPSLPPMAAFCGNMFVEPGEQCDCGFLDDCVDPCCDSLTCQLRPGAQCASDGPCCQNCQLRPSGWQCRPTRGDCDLPEFCPGDSSQCPPDVSLGDGEPCAGGQAVCMHGRCASYAQQCQSLWGPGAQPAAPLCLQTANTRGNAFGSCGRNPSGSYVSCTPRDAICGQLQCQTGRTQPLLGSIRDLLWETIDVNGTELNCSWVHLDLGSDVAQPLLTLPGTACGPGLVCIDHRCQRVDLLGAQECRSKCHGHGVCDSNRHCYCEEGWAPPDCTTQLKATSSLTTGLLLSLLVLLVLVMLGASYWYRARLHQRLCQLKGPTCQYRAAQSGPSERPGPPQRALLARGTKQASALSFPAPPSRPLPPDPVSKRLQAELADRPNPPTRPLPADPVVRSPKSQGPAKPPPPRKPLPADPQGRCPSGDLPGPGAGIPPLVVPSRPAPPPPTVSSLYL [ADAM15]”, in data set [1], the “solubility in G1/S (log2)” value was found to be 0.293. Also, the melting temperature in data set [2] (cell cycle stage: G1/S) was determined as 54.2 °C; in data set [2] (cell cycle stage: mitosis) it was 55.4 °C. Besides, in data set [3], the “solubility change mitosis (log2)” value is -0.0652. Besides, the thermal stability score turned out to be 0.908 in data set [4] (setting [5]) and 2.18 in data set [4] (cell cycle stage: mitosis).

For the sequence “MRAVLAREMDGRRVLGRFWSGWRRGLGVRPVPEDAGFGTEARHQRQPRGSCQRSGPLGDQPFAGLLPKNLSREELVDALRAAVVDRKGPLVTLNKPQGLPVTGKPGELTLFSVLPELSQSLGLREQELQVVRASGKESSGLVLLSSCPQTASRLQKYFTHARRAQRPTATYCAVTDGIPAASEGKIQAALKLEHIDGVNLTVPVKAPSRKDILEGVKKTLSHFRVVATGSGCALVQLQPLTVFSSQLQVHMVLQLCPVLGDHMYSARVGTVLGQRFLLPAENNKPQRQVLDEALLRRLHLTPSQAAQLPLHLHLHRLLLPGTRARDTPVELLAPLPPYFSRTLQCLGLRLQ [RPUSD3]”, the “solubility in G1/S (log2)” value in data set [1] came out at 0.193. For the same sequence, the melting temperature in data set [2] (cell cycle stage: G1/S) worked out at 50.1 °C; in data set [2] (cell cycle stage: mitosis), 51.2 °C. Also, in data set [3], the “solubility change mitosis (log2)” value was found to be 0.0294. For the same sequence, the values for the thermal stability score in data set [4] (setting [5]) and in data set [4] (cell cycle stage: mitosis) were -1.94 and 0.774, respectively.

As for “MAEPVSPLKHFVLAKKAITAIFDQLLEFVTEGSHFVEATYKNPELDRIATEDDLVEMQGYKDKLSIIGEVLSRRHMKVAFFGRTSSGKSSVINAMLWDKVLPSGIGHITNCFLSVEGTDGDKAYLMTEGSDEKKSVKTVNQLAHALHMDKDLKAGCLVRVFWPKAKCALLRDDLVLVDSPGTDVTTELDSWIDKFCLDADVFVLVANSESTLMNTEKHFFHKVNERLSKPNIFILNNRWDASASEPEYMEDVRRQHMERCLHFLVEELKVVNALEAQNRIFFVSAKEVLSARKQKAQGMPESGVALAEGFHARLQEFQNFEQIFEECISQSAVKTKFEQHTIRAKQILATVKNIMDSVNLAAEDKRHYSVEEREDQIDRLDFIRNQMNLLTLDVKKKIKEVTEEVANKVSCAMTDEICRLSVLVDEFCSEFHPNPDVLKIYKSELNKHIEDGMGRNLADRCTDEVNALVLQTQQEIIENLKPLLPAGIQDKLHTLIPCKKFDLSYNLNYHKLCSDFQEDIVFRFSLGWSSLVHRFLGPRNAQRVLLGLSEPIFQLPRSLASTPTAPTTPATPDNASQEELMITLVTGLASVTSRTSMGIIIVGGVIWKTIGWKLLSVSLTMYGALYLYERLSWTTHAKERAFKQQFVNYATEKLRMIVSSTSANCSHQVKQQIATTFARLCQQVDITQKQLEEEIARLPKEIDQLEKIQNNSKLLRNKAVQLENELENFTKQFLPSSNEES [MFN1]”, the “solubility in G1/S (log2)” value in data set [1] is -0.168. Moreover, the melting temperature is 52 °C in data set [2] (cell cycle stage: G1/S) and 51.3 °C in data set [2] (cell cycle stage: mitosis). For the same sequence, the “solubility change mitosis (log2)” value in data set [3] was -0.0897. Further, the thermal stability score in data set [4] (setting [5]) is -0.212; in data set [4] (cell cycle stage: mitosis) it was -0.832.

Turning to “MAFLKLRDQPSLVQAIFNGDPDEVRALIFKKEDVNFQDNEKRTPLHAAAYLGDAEIIELLILSGARVNAKDSKWLTPLHRAVASCSEEAVQVLLKHSADVNARDKNWQTPLHIAAANKAVKCAEALVPLLSNVNVSDRAGRTALHHAAFSGHGEMVKLLLSRGANINAFDKKDRRAIHWAAYMGHIEVVKLLVSHGAEVTCKDKKSYTPLHAAASSGMISVVKYLLDLGVDMNEPNAYGNTPLHVACYNGQDVVVNELIDCGAIVNQKNEKGFTPLHFAAASTHGALCLELLVGNGADVNMKSKDGKTPLHMTALHGRFSRSQTIIQSGAVIDCEDKNGNTPLHIAARYGHELLINTLITSGADTAKRGIHGMFPLHLAALSGFSDCCRKLLSSGFDIDTPDDFGRTCLHAAAAGGNLECLNLLLNTGADFNKKDKFGRSPLHYAAANCNYQCLFALVGSGASVNDLDERGCTPLHYAATSDTDGKCLEYLLRNDANPGIRDKQGYNAVHYSAAYGHRLCLQLIASETPLDVLMETSGTDMLSDSDNRATISPLHLAAYHGHHQALEVLVQSLLDLDVRNSSGRTPLDLAAFKGHVECVDVLINQGASILVKDYILKRTPIHAAATNGHSECLRLLIGNAEPQNAVDIQDGNGQTPLMLSVLNGHTDCVYSLLNKGANVDAKDKWGRTALHRGAVTGHEECVDALLQHGAKCLLRDSRGRTPIHLSAACGHIGVLGALLQSAASMDANPATADNHGYTALHWACYNGHETCVELLLEQEVFQKTEGNAFSPLHCAVINDNEGAAEMLIDTLGASIVNATDSKGRTPLHAAAFTDHVECLQLLLSHNAQVNSVDSTGKTPLMMAAENGQTNTVEMLVSSASAELTLQDNSKNTALHLACSKGHETSALLILEKITDRNLINATNAALQTPLHVAARNGLTMVVQELLGKGASVLAVDENGYTPALACAPNKDVADCLALILATMMPVSSSSPLSSLTFNAINRYTNTSKTVSFEALPIMRNEPSSYCSFNNIGGEQEYLYTDVDELNDSDSETY [ANKRD28]”, in data set [1], the “solubility in G1/S (log2)” value is -0.288. The values for the melting temperature in data set [2] (cell cycle stage: G1/S) and in data set [2] (cell cycle stage: mitosis) were 51.2 °C and 50.8 °C, respectively. Also, the “solubility change mitosis (log2)” value in data set [3] is -0.133. Moreover, the thermal stability score in data set [4] (setting [5]) is -0.536; in data set [4] (cell cycle stage: mitosis), -1.19.

Source of the values: the supplement of paper PMC5998384.
